Results taken from the supplement of paper PMC10065799, “High-throughput profiling of sequence recognition by tyrosine kinases and SH2 domains using bacterial peptide display” (eLife, 2023).

Experiments:
Fyn = Fyn (UniProt P06241); experiment: phosphorylation enrichment, bacterial display (enrichment ratio); higher = better substrate or ligand; peptides without Tyr show the background
Fer (mouse) = experiment: as above
Hck = Hck (UniProt P08631); experiment: as above
EPHB1 = EPHB1 (UniProt P54762); experiment: as above
c-Abl (mouse) = experiment: as above
FGFR3 = FGFR3 (UniProt P22607); experiment: as above
EPHB2 = EPHB2 (UniProt P29323); experiment: as above
MERTK = MERTK (UniProt Q12866); experiment: as above
Jak2 = Jak2 (UniProt O60674); experiment: as above
c-Src = experiment: as above
Fes = Fes (UniProt P07332); experiment: as above
AncSZ = experiment: as above
FGFR1 = FGFR1 (UniProt P11362); experiment: as above
c-Src SH2 = experiment: SH2 binding enrichment of the phosphorylated peptide, bacterial display (enrichment ratio); higher = better substrate or ligand; peptides without Tyr show the background
Grb2 SH2 = Grb2 SH2 (UniProt P62993); experiment: as above
SHP2-C SH2 = experiment: as above
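For SH2 binding enrichment of the phosphorylated peptide, bacterial display in this document: peptide library displayed on the E. coli surface as eCPX fusions, selected cells deep-sequenced, score is each peptide's frequency after selection divided by its frequency in the input.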
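For phosphorylation enrichment, bacterial display in this document: 11-residue human phosphosite peptides and single-mutation variants displayed on the E. coli surface, counted by deep sequencing, each peptide's frequency after selection divided by its frequency in the unselected input library; frequency after pTyr selection over input frequency; kinase dosed for 20-30% of maximal phosphorylation in three min.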

Chain of Jak2 (O60674 whole entry, looked up): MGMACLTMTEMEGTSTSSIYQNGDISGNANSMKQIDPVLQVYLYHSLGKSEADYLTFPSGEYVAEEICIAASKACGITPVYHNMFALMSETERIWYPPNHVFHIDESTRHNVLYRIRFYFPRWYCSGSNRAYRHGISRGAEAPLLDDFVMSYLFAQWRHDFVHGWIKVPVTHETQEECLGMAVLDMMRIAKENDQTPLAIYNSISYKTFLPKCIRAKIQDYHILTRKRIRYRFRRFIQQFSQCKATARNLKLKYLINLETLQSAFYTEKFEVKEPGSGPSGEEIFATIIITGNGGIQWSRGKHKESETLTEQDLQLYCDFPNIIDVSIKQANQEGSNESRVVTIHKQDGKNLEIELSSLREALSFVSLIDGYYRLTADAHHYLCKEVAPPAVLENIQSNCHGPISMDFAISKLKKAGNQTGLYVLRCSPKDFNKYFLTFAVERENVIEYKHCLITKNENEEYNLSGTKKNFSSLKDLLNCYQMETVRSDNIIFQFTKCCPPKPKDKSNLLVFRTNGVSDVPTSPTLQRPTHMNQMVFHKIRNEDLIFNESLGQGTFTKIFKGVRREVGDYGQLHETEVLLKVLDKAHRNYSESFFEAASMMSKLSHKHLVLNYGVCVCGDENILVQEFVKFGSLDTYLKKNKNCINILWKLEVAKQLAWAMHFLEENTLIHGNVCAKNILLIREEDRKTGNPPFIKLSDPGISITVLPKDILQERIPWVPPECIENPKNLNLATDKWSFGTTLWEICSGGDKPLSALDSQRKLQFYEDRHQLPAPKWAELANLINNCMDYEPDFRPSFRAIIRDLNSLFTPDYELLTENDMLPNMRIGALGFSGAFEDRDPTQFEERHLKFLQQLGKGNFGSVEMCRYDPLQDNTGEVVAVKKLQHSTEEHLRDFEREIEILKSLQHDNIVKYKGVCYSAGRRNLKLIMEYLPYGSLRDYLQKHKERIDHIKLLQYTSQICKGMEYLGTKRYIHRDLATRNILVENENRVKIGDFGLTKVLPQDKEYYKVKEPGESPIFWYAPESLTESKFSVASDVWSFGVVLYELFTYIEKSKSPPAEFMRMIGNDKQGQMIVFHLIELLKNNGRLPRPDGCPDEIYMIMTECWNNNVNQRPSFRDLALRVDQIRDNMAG
Chain of Fes (P07332 whole entry, looked up): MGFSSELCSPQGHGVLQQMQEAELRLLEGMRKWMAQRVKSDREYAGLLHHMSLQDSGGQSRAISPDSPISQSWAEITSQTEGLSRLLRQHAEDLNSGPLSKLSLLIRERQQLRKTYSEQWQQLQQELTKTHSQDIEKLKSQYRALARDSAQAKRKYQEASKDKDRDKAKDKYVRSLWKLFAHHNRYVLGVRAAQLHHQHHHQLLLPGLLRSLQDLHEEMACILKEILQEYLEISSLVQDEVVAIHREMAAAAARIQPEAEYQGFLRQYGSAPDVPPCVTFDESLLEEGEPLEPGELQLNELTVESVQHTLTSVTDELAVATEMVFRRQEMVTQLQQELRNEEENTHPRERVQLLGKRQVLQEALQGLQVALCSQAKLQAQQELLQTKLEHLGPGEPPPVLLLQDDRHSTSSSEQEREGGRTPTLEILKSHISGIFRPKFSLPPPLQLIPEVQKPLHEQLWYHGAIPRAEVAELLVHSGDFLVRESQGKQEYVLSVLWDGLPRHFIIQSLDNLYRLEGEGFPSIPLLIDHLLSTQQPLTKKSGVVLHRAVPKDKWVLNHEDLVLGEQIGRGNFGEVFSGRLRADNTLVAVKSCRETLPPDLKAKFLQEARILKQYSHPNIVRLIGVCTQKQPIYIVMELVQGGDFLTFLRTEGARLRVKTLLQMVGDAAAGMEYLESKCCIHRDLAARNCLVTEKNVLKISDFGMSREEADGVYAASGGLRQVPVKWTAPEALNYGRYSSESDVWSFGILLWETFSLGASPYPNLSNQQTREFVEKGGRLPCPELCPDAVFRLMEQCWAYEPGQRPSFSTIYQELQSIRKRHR
Chain of MERTK (Q12866 whole entry, looked up): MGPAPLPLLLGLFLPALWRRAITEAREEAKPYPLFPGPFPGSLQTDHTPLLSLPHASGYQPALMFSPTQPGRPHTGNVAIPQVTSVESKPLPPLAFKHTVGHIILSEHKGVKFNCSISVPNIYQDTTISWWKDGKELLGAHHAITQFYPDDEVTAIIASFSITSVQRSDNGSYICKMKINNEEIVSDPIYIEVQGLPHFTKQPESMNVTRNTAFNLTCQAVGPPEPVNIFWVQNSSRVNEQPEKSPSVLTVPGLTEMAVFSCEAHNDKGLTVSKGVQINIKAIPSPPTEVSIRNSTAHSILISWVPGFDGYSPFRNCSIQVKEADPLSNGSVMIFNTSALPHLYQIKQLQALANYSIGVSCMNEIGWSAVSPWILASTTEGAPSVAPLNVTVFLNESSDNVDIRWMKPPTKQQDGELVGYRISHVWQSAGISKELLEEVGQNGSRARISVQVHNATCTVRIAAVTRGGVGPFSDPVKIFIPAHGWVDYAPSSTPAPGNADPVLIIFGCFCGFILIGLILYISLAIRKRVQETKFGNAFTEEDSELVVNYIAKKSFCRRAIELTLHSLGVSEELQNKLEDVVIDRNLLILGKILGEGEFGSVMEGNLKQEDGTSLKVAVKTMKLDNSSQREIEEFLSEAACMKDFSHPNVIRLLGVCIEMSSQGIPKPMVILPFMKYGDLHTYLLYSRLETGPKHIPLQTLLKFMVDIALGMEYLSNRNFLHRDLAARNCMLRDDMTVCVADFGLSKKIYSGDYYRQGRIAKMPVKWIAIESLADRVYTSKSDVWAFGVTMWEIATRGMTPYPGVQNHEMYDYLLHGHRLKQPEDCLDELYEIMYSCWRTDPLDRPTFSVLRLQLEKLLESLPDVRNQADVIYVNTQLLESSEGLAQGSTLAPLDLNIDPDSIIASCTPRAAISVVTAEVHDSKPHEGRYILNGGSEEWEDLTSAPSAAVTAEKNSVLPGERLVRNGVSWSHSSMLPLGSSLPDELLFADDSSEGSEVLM
Chain of Fyn (P06241 whole entry, looked up): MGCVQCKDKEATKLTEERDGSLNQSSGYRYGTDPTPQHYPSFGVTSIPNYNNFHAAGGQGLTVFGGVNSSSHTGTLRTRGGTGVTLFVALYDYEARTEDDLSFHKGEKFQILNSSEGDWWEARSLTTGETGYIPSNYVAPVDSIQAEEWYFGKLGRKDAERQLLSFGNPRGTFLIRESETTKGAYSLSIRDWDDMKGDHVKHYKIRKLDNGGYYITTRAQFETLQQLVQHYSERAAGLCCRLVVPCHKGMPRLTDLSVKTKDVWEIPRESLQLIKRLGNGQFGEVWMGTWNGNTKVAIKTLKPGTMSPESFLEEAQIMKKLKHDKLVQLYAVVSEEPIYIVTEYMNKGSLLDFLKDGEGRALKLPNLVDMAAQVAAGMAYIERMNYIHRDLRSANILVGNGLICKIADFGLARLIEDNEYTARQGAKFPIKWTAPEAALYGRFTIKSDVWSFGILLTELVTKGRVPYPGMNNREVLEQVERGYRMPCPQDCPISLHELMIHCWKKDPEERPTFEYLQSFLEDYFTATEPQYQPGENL
Chain of EPHB2 (P29323 whole entry, looked up): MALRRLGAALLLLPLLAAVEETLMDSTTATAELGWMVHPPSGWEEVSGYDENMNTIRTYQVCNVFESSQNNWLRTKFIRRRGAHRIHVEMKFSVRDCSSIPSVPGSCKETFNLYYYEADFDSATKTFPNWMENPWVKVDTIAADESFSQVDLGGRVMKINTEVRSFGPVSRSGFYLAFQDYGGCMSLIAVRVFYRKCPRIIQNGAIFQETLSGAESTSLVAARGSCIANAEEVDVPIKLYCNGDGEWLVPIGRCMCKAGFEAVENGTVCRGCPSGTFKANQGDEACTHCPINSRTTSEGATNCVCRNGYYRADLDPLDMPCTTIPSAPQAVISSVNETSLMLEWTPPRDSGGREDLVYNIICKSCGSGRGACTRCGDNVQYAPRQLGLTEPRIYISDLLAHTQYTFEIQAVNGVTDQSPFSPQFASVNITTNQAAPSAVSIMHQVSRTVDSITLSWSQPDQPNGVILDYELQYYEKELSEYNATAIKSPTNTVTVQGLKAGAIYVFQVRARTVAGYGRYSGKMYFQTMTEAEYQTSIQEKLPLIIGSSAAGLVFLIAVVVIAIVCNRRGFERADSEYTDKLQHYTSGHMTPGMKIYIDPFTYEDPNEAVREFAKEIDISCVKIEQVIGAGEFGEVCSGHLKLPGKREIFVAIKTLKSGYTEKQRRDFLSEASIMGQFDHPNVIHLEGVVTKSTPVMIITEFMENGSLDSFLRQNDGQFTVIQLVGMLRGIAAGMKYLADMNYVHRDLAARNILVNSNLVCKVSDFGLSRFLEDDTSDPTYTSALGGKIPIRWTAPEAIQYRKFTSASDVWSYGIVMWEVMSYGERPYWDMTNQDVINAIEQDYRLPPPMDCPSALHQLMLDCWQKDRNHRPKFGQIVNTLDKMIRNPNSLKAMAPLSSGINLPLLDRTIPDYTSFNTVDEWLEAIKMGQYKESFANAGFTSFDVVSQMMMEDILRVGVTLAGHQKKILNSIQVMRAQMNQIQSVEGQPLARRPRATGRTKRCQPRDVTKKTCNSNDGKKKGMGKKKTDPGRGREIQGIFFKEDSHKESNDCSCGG
Chain of Hck (P08631 whole entry, looked up): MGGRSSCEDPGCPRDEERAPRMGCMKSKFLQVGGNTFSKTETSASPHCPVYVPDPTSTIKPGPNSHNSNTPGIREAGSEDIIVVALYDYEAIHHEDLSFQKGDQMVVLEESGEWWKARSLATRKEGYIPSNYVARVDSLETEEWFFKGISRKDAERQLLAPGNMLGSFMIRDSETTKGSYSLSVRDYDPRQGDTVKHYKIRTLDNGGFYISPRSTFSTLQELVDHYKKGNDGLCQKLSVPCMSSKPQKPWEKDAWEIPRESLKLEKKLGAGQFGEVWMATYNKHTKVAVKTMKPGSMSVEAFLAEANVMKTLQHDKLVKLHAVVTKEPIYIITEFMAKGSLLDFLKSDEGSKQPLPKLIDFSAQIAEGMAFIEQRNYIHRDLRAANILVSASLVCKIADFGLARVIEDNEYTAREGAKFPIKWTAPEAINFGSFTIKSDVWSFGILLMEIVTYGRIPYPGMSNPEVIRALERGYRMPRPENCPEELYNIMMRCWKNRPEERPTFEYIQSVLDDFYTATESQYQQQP

SH2 binding enrichment (c-Src SH2)	SH2 binding enrichment (Grb2 SH2)	SH2 binding enrichment (SHP2-C SH2)	Sequence	phosphorylation enrichment (Fyn)	phosphorylation enrichment (Fer (mouse))	phosphorylation enrichment (Hck)	phosphorylation enrichment (EPHB1)	phosphorylation enrichment (c-Abl (mouse))	phosphorylation enrichment (FGFR3)	phosphorylation enrichment (EPHB2)	phosphorylation enrichment (MERTK)	phosphorylation enrichment (Jak2)	phosphorylation enrichment (c-Src)	phosphorylation enrichment (Fes)	phosphorylation enrichment (AncSZ)	phosphorylation enrichment (FGFR1)
0.377	0.84	1.13	TVMGLYQKSSL [MYH7_Y609_V606M]	0.404	0.527	0.573	0.657	0.525	0.618	0.516	0.601	0.707	0.563	0.797	0.824	0.412
0.435	1	0.353	RGRKVYLEDGF [PRIM2_Y201]	0.698	1.13	0.852	0.662	1.29	0.851	0.649	1.15	0.808	1.11	0.911	1.04	0.749
0.79	0.838	0.659	KVKVEYDMTVP [AHNAK_Y964_G962V]	0.492	0.51	0.485	0.45	0.862	0.646	0.59	0.478	0.872	0.555	1.03	0.94	0.495
0.975	1.25	1.42	RGNKEYKEEKR [LENG1_Y96_E97K]	0.399	0.303	0.425	0.369	0.688	0.735	0.423	0.392	0.511	0.398	0.861	0.462	0.606
